Reference: US20230242635A1 (published 2023)
Residue numbers refer to the chain shown, from its start. In names and notes the source's numbering stands.

B1: caninized anti-IL31 antibody 34D03 (mAb1), canine IgGB (65), wild-type (antibody)
heavy: EVQLVESGGDLVKPGGSLRLSCVASGFTFSNYGMSWVRQAPGKGLQWVATISYGGSYTYYPDNIKGRFTISRDNAKNTLYLQMNSLRAEDTAMYYCVRGYGYDTMDYWGQGTLVTVSSASTTAPSVFPLAPSCGSTSGSTVALACLVSGYFPEPVTVSWNSGSLTSGVHTFPSVLQSSGLYSLSSMVTVPSSRWPSETFTCNVAHPASKTKVDKPVPKRENGRVPRPPDCPKCPAPEMLGGPSVFIFPPKPKDTLLIARTPEVTCVVVDLDPEDPEVQISWFVDGKQMQTAKTQPREEQFNGTYRVVSVLPIGHQDWLKGKQFTCKVNNKALPSPIERTISKARGQAHQPSVYVLPPSREELSKNTVSLTCLIKDFFPPDIDVEWQSNGQQEPESKYRTTPPQLDEDGSYFLYSKLSVDKSRWQRGDTFICAVMHEALHNHYTQESLSHSPGK
VL: EIVMTQSPASLSLSQEEKVTITCKASQSVSFAGTGLMHWYQQKPGQAPKLLIYRASNLEAGVPSRFSGSGSGTDFSFTISSLEPEDVAVYYCQQSREYPWTFGQGTKLEIK
B2: caninized anti-NGF antibody ZTS-841 (mAb2 of Table 4), canine IgGA, WT (antibody, from a related filing, part only)
heavy: EVQLVESGGDLVKPGGSLRLSCVASGFTFSSHGMHWVRQSPGKGLQWVAVINSGGSSTYYTDAVKGRFTISRDNAKNTVYLQMNSLRAEDTAMYYCAKESVGGWEQLVGPHFDYWGQGTLVIVSSASTTAPSVFPLAPSCGSTSGSTVALACLVSGYFPEPVTVSWNSGSLTSGVHTFPSVLQSSGLHSLSSMVTVPSSRWPSETFTCNVVHPASNTKVDKPVFNECRCTDTPPCPVPEPLGGPSVLIFPPKPKDILRITRTPEVTCVVLDLGREDPEVQISWFVDGKEVHTAKTQSREQQFNGTYRVVSVLPIEHQDWLTGKEFKCRVNHIDLPSPIERTISKARGRAHKPSVYVLPPSPKELSSSDTVSITCLIKDFYPPDIDVEWQSNGQQEPERKHRMTPPQLDEDGSYFLYSKLSVDKSRWQQGDPFTCAVMHETLQNHYTDLSLSHSPGK
VL: QSVLTQPTSVSGSLGQRVTISCSGSTNNIGILGASWYQLFPGKAPKLLVYGNGNRPSGVPDRFSGADSGDSVTLTITGLQAEDEADYYCQSFDTTLGAHVFGGGTHLTVL
B3: caninized anti-NGF antibody ZTS-841 (mAb2 of Table 4), canine IgGC, WT (antibody, from a related filing, part only)
heavy: EVQLVESGGDLVKPGGSLRLSCVASGFTFSSHGMHWVRQSPGKGLQWVAVINSGGSSTYYTDAVKGRFTISRDNAKNTVYLQMNSLRAEDTAMYYCAKESVGGWEQLVGPHFDYWGQGTLVIVSSASTTAPSVFPLAPSCGSQSGSTVALACLVSGYIPEPVTVSWNSVSLTSGVHTFPSVLQSSGLYSLSSMVTVPSSRWPSETFTCNVAHPATNTKVDKPVAKECECKCNCNNCPCPGCGLLGGPSVFIFPPKPKDILVTARTPTVTCVVVDLDPENPEVQISWFVDSKQVQTANTQPREEQSNGTYRVVSVLPIGHQDWLSGKQFKCKVNNKALPSPIEEIISKTPGQAHQPNVYVLPPSRDEMSKNTVTLTCLVKDFFPPEIDVEWQSNGQQEPESKYRMTPPQLDEDGSYFLYSKLSVDKSRWQRGDTFICAVMHEALHNHYTQISLSHSPGK
VL: B2 VL
B4: caninized anti-NGF antibody ZTS-841 (mAb2 of Table 4), canine IgGD, WT (antibody, from a related filing, part only)
heavy: EVQLVESGGDLVKPGGSLRLSCVASGFTFSSHGMHWVRQSPGKGLQWVAVINSGGSSTYYTDAVKGRFTISRDNAKNTVYLQMNSLRAEDTAMYYCAKESVGGWEQLVGPHFDYWGQGTLVIVSSASTTAPSVFPLAPSCGSTSGSTVALACLVSGYFPEPVTVSWNSGSLTSGVHTFPSVLQSSGLYSLSSTVTVPSSRWPSETFTCNVVHPASNTKVDKPVPKESTCKCISPCPVPESLGGPSVFIFPPKPKDILRITRTPEITCVVLDLGREDPEVQISWFVDGKEVHTAKTQPREQQFNSTYRVVSVLPIEHQDWLTGKEFKCRVNHIGLPSPIERTISKARGQAHQPSVYVLPPSPKELSSSDTVTLTCLIKDFFPPEIDVEWQSNGQPEPESKYHTTAPQLDEDGSYFLYSKLSVDKSRWQQGDTFTCAVMHEALQNHYTDLSLSHSPGK
VL: B2 VL
B5: caninized anti-IL31 antibody 11E12 (mAb1 of Table 5), canine IgGB, WT2 (antibody, part only; not given: light chain, part only)
heavy: EVQLVQSGAEVKKPGASVKVSCKTSGYTFKYYDINWVRQAPGAGLDWMGWIFPGDGGTKYNETFKGRVTLTADTSTSTAYMELSSLRAGDIAVYYCARGGTSVIRDAMDYWGQGTLVTVSSASTTAPSVFPLAPSCGSTSGSTVALACLVSGYFPEPVTVSWNSGSLTSGVHTFPSVLQSSGLYSLSSMVTVPSSRWPSETFTCNVAHPASKTKVDKPVPKRENGRVPRPPDCPKCPAPEMLGGPSVFIFPPKPKDTLLIARTPEVTCVVVDLDPEDPEVQISWFVDGKQMQTAKTQPREEQFNGTYRVVSVLPIGHQDWLKGKQFTCKVNNKALPSPIERTISKARGQAHQPSVYVLPPSREELSKNTVSLTCLIKDFFPPDIDVEWQSNGQQEPESKYRTTPPQLDEDGSYFLYSKLSVDKSRWQRGDTFICAVMHEALHNHYTQESLSHSPGK
B6: caninized anti-IL31 antibody 11E12 (mAb1 of Table 5), canine IgGB, N434H (antibody, part only; not given: light chain, part only)
heavy: B5 heavy with N443H
B7: caninized anti-IL31 antibody 34D03 (mAb1), canine IgGB, N434A (antibody)
chain 1: B1 heavy with N440A
chain 2: B1 VL
B8: caninized anti-IL31 antibody 34D03 (mAb1), canine IgGB, N434F (antibody)
chain 1: B1 heavy with N440F
chain 2: B1 VL
B9: caninized anti-IL31 antibody 34D03 (mAb1), canine IgGB, N434G (antibody)
chain 1: B1 heavy with N440G
chain 2: B1 VL
B10: caninized anti-IL31 antibody 34D03 (mAb1), canine IgGB, N434I (antibody)
chain 1: B1 heavy with N440I
chain 2: B1 VL
B11: caninized anti-IL31 antibody 34D03 (mAb1), canine IgGB, N434K (antibody)
chain 1: B1 heavy with N440K
chain 2: B1 VL
B12: caninized anti-IL31 antibody 34D03 (mAb1), canine IgGB, N434L (antibody)
chain 1: B1 heavy with N440L
chain 2: B1 VL
B13: caninized anti-IL31 antibody (mAb1), canine IgGB, N434Y (antibody)
chain 1: B1 heavy with N440Y
chain 2: B1 VL

Tests used:
[1] = molecular target: canine FcRn complex (FcRn-α subunit and β-microglobulin) with c-terminal 6x His + BAP tag, amine-immobilized (Example 3) (canine); assay: SPR (Biacore), FcRn amine-coupled on CM5, IgG flowed, pH 6, 15 C
[2] = molecular target: canine FcRn complex (FcRn-α subunit and β-microglobulin), biotin labeled by BirA, captured on SA chip (Example 5) (canine); assay: SPR (Biacore), biotinylated FcRn captured on SA chip, IgG flowed, pH 7.4, 15 C
[3] = molecular target: IL-31 (target protein of mAb1, immobilized); assay: SPR (Biacore T200), target amine-coupled on CM5, antibody flowed, 15 C, 1:1 model
[4] = molecular target: canine FcRn complex (FcRn-α subunit and β-microglobulin), biotin labeled by BirA, captured on SA chip (Example 5) (canine); assay: SPR (Biacore), biotinylated FcRn captured on SA chip, IgG flowed, pH 6, 15 C
[5] = molecular target: IL-31 (target protein of mAb1, immobilized); assay: cell-based or functional assay
[6] = molecular target: T1, canine FcRn complex (FcRn-α subunit and β-microglobulin), biotin labeled by BirA, captured on SA chip … (canine, UniProt A0A8I3PFR8 25-296, biotin label by BirA enzymatic biotinylation (BAP tag)); assay: SPR (Biacore), biotinylated FcRn captured on SA chip, IgG flowed, pH 6, 15 C
T1 sequence (A0A8I3PFR8 entry or part of it, one chain of several): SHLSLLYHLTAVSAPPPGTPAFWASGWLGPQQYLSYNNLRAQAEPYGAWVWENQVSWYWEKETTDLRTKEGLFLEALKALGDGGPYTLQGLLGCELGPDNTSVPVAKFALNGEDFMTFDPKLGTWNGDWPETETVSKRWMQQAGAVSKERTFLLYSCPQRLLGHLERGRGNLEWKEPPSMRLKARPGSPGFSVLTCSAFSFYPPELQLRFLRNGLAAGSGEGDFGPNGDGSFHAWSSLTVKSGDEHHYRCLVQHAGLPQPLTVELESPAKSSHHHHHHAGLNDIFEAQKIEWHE

[7] = molecular target: T1, canine FcRn complex (FcRn-α subunit and …); assay: SPR (Biacore), biotinylated FcRn captured on SA chip, IgG flowed, pH 7.4, 15 C
[8] = molecular target: T1, canine FcRn complex (FcRn-α subunit and …); assay: as above; remark: listed apart in the source
[9] = molecular target: T1, canine FcRn complex (FcRn-α subunit and …); assay: SPR (Biacore), biotinylated FcRn captured on SA chip, IgG flowed, pH 6, 15 C; remark: listed apart in the source

| Binder | Kd [4] [nM] | Kd [6] [nM] | Kd [7] [nM] | other results |
| --- | --- | --- | --- | --- |
| B1 | 19.9 | – | – | Kd [1]: 15 to 24.4 nM; Kd [2]: 18700 nM; Kd [3]: 0.483 nM; IC50 (cell based potency assay) [5]: 1.1 nM |
| B2 | 95.5 | – | – | – |
| B3 | 52 | – | – | – |
| B4 | 71 | – | – | – |
| B5 | 40 | – | – | – |
| B6 | 1 | – | – | Kd [2]: 83900 nM |
| B7 | – | 139 | 175 | – |
| B8 | – | 30.7 | 33700 | – |
| B9 | – | 118 | 26000 | – |
| B10 | – | 77.1 | 19600 | – |
| B11 | – | 9.11 | 7.86 | – |
| B12 | – | 14.3 | 997 | – |
| B13 | – | – | – | Kd [8]: 1900 nM; Kd [9]: 2.71 nM |
